Test results as given in patent US20220356230A1 (published 2022).

Experiments:
[1] = biological target: T1, MERS-CoV (NCoV/Novel coronavirus) Spike Protein S1 Protein (aa 1-725, His Tag) (Sino 40069-V08B1) (MERS-CoV, UniProt K9N5Q8 18-725); assay: Luminex bead assay, supernatant
T1 sequence: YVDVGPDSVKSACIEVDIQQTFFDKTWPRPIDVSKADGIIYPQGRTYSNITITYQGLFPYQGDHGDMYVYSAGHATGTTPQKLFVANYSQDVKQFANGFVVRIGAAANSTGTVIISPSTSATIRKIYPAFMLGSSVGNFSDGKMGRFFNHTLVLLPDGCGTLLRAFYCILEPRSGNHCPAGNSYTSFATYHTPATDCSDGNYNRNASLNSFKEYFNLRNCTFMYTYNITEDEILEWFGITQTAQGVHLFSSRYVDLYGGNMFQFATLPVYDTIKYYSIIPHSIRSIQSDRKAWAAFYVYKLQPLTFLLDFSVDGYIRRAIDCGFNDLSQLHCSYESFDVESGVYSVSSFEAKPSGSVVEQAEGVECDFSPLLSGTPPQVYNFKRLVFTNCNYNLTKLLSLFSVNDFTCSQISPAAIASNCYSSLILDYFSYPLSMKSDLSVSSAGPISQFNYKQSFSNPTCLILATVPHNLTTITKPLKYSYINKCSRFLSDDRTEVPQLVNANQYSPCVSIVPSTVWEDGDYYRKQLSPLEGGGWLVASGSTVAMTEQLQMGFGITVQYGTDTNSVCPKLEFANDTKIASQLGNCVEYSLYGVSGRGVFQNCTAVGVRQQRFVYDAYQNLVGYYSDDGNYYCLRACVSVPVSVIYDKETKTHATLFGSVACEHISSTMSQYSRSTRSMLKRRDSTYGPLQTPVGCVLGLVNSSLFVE

[2] = biological target: T2, MERS-CoV (NCoV/Novel coronavirus) Spike Protein fragment (RBD, aa 367-606, His Tag) (Sino 40071-V08B1) (MERS-CoV, UniProt K9N5Q8 367-606); assay: Luminex bead assay, supernatant
T2 sequence: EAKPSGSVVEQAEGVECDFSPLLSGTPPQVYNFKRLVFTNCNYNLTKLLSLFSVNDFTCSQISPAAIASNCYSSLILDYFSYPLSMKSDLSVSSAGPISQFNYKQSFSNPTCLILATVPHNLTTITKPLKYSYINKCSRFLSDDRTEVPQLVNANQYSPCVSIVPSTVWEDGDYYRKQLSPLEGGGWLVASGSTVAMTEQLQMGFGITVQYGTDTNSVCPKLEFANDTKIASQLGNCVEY

[3] = biological target: Human SARS Coronavirus Spike S1 Subunit Protein (His Tag) (Sino 40150-V08B1) (Human SARS Coronavirus, UniProt P59594 14-667); assay: Luminex bead binding, antigen on microspheres, antibody supernatant

Binder	Binding signal (MFI) [1]	Binding signal (MFI) [2]	MFI [3]
mAb10937 (antibody, V domains shown) VH: QITLKESGPTLVKPTQTLTLTCTFSGFSLSTNVVGVGWIRQPPGKALEWLALIYWNDDKRYSPSLKSRLTITKDTSKNQVVLTMTNMDPVDTATYYCAHGPTGDYFDYWGQGTLVTVSS VL: not shown	22 MFI	27 MFI	–
mAb10920 (antibody, V domains shown) VH: QVQLVESGGGVVQPGRSLRLSCAASGFTFSYYGMHWVRQAPGKGLEWVAVIWYDGSNKFYADSVKGRFTISRDNSKNTLYLQMNSLRAEDTAVYYCAAARPGYYYGMDVWGQGTTVTVSS VL: DIQMTQSPSSLSASVGDRVTITCRASQGISNYLAWFQQKPGKAPNSLIYAASSLQRGVPSKFSGSGSGTDFTLTISSLQPEDFATYYCQQYNSYPRTFGQGTKVEIKR	27 MFI	39 MFI	–
mAb10965 (antibody, V domains shown) VH: EVQLVESGGGLIQPGGSLRLSCAASVFTVSYNYMSWVRQAPGKGLEWVSVIYSGGSTYYADSVKGRFTISRDNSKNTLYLQMNSLRAEDTAVYYCARALPGWGGSFEYFDYWGQGTLVTVSS VL: not shown	–	–	16 MFI
mAb10936 (antibody, V domains shown) VH: QVQLVESGGGVVQPGRSLRLSCAASGFTFRNYGMHWVRQAPGKGLEWVSVIWYDGSNRYYADSVKGRFTISRDTSKNTLYLQMNSLRAEDTAVYYCARDPPITGTTGGDAFDIWGQGTMVTVSS VL: not shown	20 MFI	29 MFI	–
mAb10967 (antibody, V domains shown) VH: EVQLVESGGGLVQPGGSLRLSCAASGFTVSSNYMSWVRQAPGKGLEWVSVIYPGGSTFYADSVKGRFTISRDNSKNTLYLQMNSLRAEDTAVYYCARDQRDFAWGQGTLVTVSS VL: DIQMTQSPSSLSASVGDRVTITCQASQDISNYLNWYQQKPGKAPKLLIYDASNLETGVPSRFSGSGSGTDFTFTISGLQPEDIATYYCQQYDNLPPTFGQGTRLEIKR	–	–	21 MFI
mAb10938 (antibody, V domains shown) VH: EVQLVESGGGLVQPGGSLRLSCAVSGFTVSSNYMSWVRQAPGKGLEWVSLIYSGGSTFYADSVKGRFTISRHNSKNTLYLQMNSLRAEDTAVYYCAREGGYSYDYNYWGQGTLVTVSS VL: DIQMTQSPSSLSASVGDRVTITCQASQDIRNYLNWYQQKPGKAPKLLIYDASNLETGVPSRFSGIGSGTDFTFTISSLQPEDIATYYCQQYDNLPITFGQGTRLEIKR	20 MFI	25 MFI	–
mAb10934 (antibody, V domains shown) VH: not shown VL: DIQMTQSPSSLSASVGDRVTITCQASQDIWNYINWYQQKPGKAPKLLIYDASNLKTGVPSRFSGSGSGTDFTFTISSLQPEDIATYYCQQHDDLPPTFGQGTKVEIKR	20 MFI	24 MFI	–
mAb10954 (antibody, V domains shown) VH: EVQLVESGGGLVQPGGSLRLSCAASGITVSSNYMSWVRQAPGKGLEWVSLIYSGGSTYYADSVKGRFTISRDNSKNTLYLQMNSLRVEDTAVYYCARDHGMAAAGYNYWGQGTLVTVSS VL: DIQMTQSPSSLSASVGDRVTITCQASQDINKYLNWYQQKPGKAPKLLIYDASNLETGVPSRFSGSGSGTDFTFTINSLQPEDFATYFCQQYDNLPPAFGQGTKVEIKR	–	–	15 MFI
mAb10989 (antibody, V domains shown) VH: QVQLVQSGAEVKKPGASVKVSCKASGYIFTGYYMHWVRQAPGQGLEWMGWINPNSGGANYAQKFQGRVTLTRDTSITTVYMELSRLRFDDTAVYYCARGSRYDWNQNNWFDPWGQGTLVTVSS VL: QSALTQPASVSGSPGQSITISCTGTSSDVGTYNYVSWYQQHPGKAPKLMIFDVSNRPSGVSDRFSGSKSGNTASLTISGLQAEDEADYYCSSFTTSSTVVFGGGTKLTVLG	–	–	21 MFI
mAb10923 (antibody, V domains shown) VH: QVQLVQSGAEVKKPGASVKVSCKASGYTFINYYIHWVRQAPGQGLEWMGWINPNSGGTNYAQKFQGRVTMTRDTSISTAYMELSRLRSDDTAVYYCAIITIFGVVTWFDPWGQGTLVTVSS VL: not shown	25 MFI	37 MFI	–
mAb10930 (antibody, V domains shown) VH: EVQLVESGGGLVQPGRSLRLSCAASGFTFDDYAMYWVRQAPGKGLEWVSGISWNSGSIGYADSVKGRFTISRDNAKNSLYLQMNSLRAADTALYYCAKDKDWNSRGYYYYGMDVWGQGTTVTVSS VL: not shown	22 MFI	27 MFI	–
mAb10984 (antibody, V domains shown) VH: EVQLVESGGGLVQPGGSLRLSCAASGLTVNRNYMSWVRQAPGKGLEWVSLIYSGGSTYYADSVKGRFTISRDNSKNTLYLQMNSLRLEDTAVYYCARGELGIPYGMDVWGQGTTVTVSS VL: QSVLTQPPSVSAAPGQKVTISCSGSSSNIGNNYVSWYQQLPGTAPKLLIYDNNKRPSGIPDRFSGSKSGTSATLGITGLQTGDEADYYCGTWDSSLSAGVFGGGTKLTVLG	20 MFI	29 MFI	–
mAb10985 (antibody, V domains shown) VH: EVQLVESGGGLVQPGRSLRLSCAASGFTFDDYAMHWVRQAPGKGLEWVSGISWNRGSIGYADSVKGRFTISRDNAKNSLYLQMSSLRAEDTALYYCAKDGERWDSVVVPSARNGMDVWGQGTTVTVSS VL: QSVLTQPPSVSGAPGQRVTISCTGSSSNIGAGYDVHWYQQLPGTAPKLLIYGNSNRPSGVPDRFSGSKSGTSASLAITGLQAEDEADYYCQSYDSSLSGSYVFGTGTKVTVLG	22 MFI	31 MFI	–
mAb10986 (antibody, V domains shown) VH: EVQLVESGGGLVQPGGSLRLSCAASEFTVSSNYMSWVRQAPGKGLEWVSVIYSGGSTFYADSVKGRFTISRDNSKNTLYLQMNSLRAEDTAVYYCARALPYGDLHFDYWGQGTLVTVSS VL: QSVLTQPPSVSGAPGQRVTISCTGSSSNIGTGYDVHWYQQLPGTAPKLLIYGNTNRPSGVPDRFSGSKSGTSASLAITGLQAEDEADYYCQSYDSSLSDSYVFGTGTKVTVLG	20 MFI	27 MFI	–
